Bridge positions count the residues as written; N and C are the ends. Ends that are not written are not given here.
How the values were obtained:
[1] = molecular target: TNF receptor (immobilized control); test: SPR, receptor immobilized, peptide injected
[2] = molecular target: T1, ErbB3 extracellular domain (recombinant, soluble) (UniProt P21860 20-643, limits assumed); test: SPR; 10 µM peptide pre-injected over immobilized ErbB3; competitor: ErbB3 ectodomain (300 nM) with HRGβ1 (5 µM)
T1 construct: extracellular domain; Used both immobilized and as the injected analyte (300 nM, alone or with 5 µM HRGβ1); also called erbB3 ectodomain

[3] = molecular target: T2, ErbB2 extracellular domain (recombinant) (UniProt P04626 23-652, limits assumed); test: SPR; 10 µM peptide pre-injected over immobilized ErbB2; competitor: ErbB3 ectodomain (300 nM) with HRGβ1 (5 µM)
T2 construct: extracellular domain; also called erbB2 ectodomain; full-size erbB2 ectodomain

[4] = molecular target: T3, ErbB1 extracellular domain (recombinant, soluble) (UniProt P00533 25-645, limits assumed); test: SPR; 10 µM peptide pre-injected over immobilized ErbB1; competitor: ErbB3 ectodomain (300 nM) with HRGβ1 (5 µM)
T3 construct: extracellular domain; also called erbB1 ectodomain; EGFr

T1 sequence (P21860 20-643 limits assumed): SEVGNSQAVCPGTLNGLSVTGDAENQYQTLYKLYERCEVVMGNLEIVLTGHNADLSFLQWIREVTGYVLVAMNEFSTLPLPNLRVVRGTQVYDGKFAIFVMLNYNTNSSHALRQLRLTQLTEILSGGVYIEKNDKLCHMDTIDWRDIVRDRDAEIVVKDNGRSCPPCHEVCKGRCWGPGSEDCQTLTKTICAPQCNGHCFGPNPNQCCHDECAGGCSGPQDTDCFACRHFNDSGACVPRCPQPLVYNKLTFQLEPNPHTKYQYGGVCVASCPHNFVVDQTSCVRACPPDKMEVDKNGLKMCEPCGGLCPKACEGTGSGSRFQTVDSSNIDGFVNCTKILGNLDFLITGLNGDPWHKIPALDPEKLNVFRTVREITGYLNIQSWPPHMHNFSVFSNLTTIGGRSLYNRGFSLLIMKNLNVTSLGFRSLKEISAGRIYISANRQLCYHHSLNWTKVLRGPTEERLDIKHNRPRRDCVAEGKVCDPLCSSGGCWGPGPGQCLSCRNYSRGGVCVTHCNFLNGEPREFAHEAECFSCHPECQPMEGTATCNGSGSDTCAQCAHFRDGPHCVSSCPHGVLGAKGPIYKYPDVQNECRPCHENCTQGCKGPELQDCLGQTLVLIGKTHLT

Row | Binder | Kd [1] [µM] | Percent Inhibition [2] [%] | Percent Inhibition [3] [%] | Percent Inhibition [4] [%]
1 | YCFIFKYADPDCY (disulfide 2-12 (inferred), Derived from the S22 repeat of erbB4) [B4-S22-AFD] | > 1000 |  |  | 
2 | YCLVWKYADAGCY (disulfide 2-12 (inferred), Derived from the S22 repeat of erbB1) [B1-S22-ALG] | > 1000 |  |  | 
3 | YCPIYKYPDVQCY (disulfide 2-12 (inferred), Derived from the S22 repeat of erbB3) [B3-S22-APQ] | > 1000 |  |  | 
4 | FCYIGEVEDQCY (disulfide 2-11 (inferred), Negative control peptide; also called CD4 receptor-derived cyclic peptide; control peptide) [CD4-G] | > 1000 | 3.1 | -1.2 | 2.4

The next lines start with the values.

Row | Kd [1] [µM] | Percent Inhibition [2] [%] | Percent Inhibition [3] [%] | Percent Inhibition [4] [%] | Binder
5 | > 1000 |  |  |  | YCPIWKFPDEECY (disulfide 2-12 (inferred), Derived from the S22 repeat of erbB2) [B2-S22-APE]
6 | > 1000 |  |  |  | YCFPDEEGACY (disulfide 2-10 (inferred), Cyclic peptide that mimics part of the S22 loop of erbB2) [B2-S22-AFA]
